We go through two molecules from patent US20250332297A1, “DLL3-SPECIFIC BINDING CONSTRUCTS AND THEIR USE IN RADIOTHERAPY” (MOLECULAR PARTNERS AG, priority 2024, published 2025).

Series [1] in a line: Dose response finding (tolerability) in WT CD1 mice.
The nature of series [2]: Pharmacokinetic analysis in WT BALBc mice (serum, ELISA). The series is classed as in vivo, mouse. The settings on record: 1 mg/kg i.v. From the text:
The pharmacokinetic (PK) properties of lead-labelled DARPin (MAM160, MAM279, MAM282, MAM283) conjugates were investigated in mice, including to determine the terminal half-life (or serum half-life) of these conjugates.
In brief, DARPins MAM279, MAM283, MAM160 and MAM282 were conjugated to the chelator DOTAM, via a C-terminal Cysteine containing tag and a connector, as described in Example 3. The conjugates were then labelled with natural lead (Pb). The protein components of the conjugates corresponded to SEQ ID NOs: 15 to 18, respectively. These lead-labelled DARPin conjugates were injected i.v. at 1 mg/kg into WT BALBc mice. Serum was collected 2 min, 10 min, 30 min, 1 h, 4 h, 24 h, 48 h, and 72 h post-injection. DARPins were detected and measured by ELISA. The data were expressed as the DARPin concentration in serum (nmol/L).
In brief, lead-labelled MAM279 conjugate, as described in Example 13, was injected i. at 0.1 mg/kg or at 1 mg/kg into the tail vein of WT BALBc mice. Serum was collected 2 min, 10 min, 30 min, 1 h, 4 h, 24 h, 48 h, and 72 h post-injection for MAM279 conjugate injected at 1 mg/kg, and 2 min, 30 min, 4 h, 24 h, 30 h, 48 h, 72 h, 96 h, and 168 h post-injection for MAM279 conjugate injected at 0.1 mg/kg. DARPins were detected and measured by ELISA. The data were expressed as the DARPin concentration in serum (nmol/L).
In brief, natural lead-labelled MAM279 conjugate, as described in Example 13, was injected i.v. at different doses (0.001 mg/kg, 0.01 mg/kg, 0.1 mg/kg, or 1 mg/kg) into the tail vein of WT BALBc mice. Similarly, unconjugated Rova was injected iv. at 1 mg/kg into the tail vein of WT BALBc mice. Serum was collected 2 min, 10 min, 30 min, 1 h, 4 h, 24 h, 48 h, and 72 h post-injection for MAM279 conjugate injected at 1 mg/kg, and 2 min, 30 min, 4 h, 24 h, 30 h, 48 h, 72 h, 96 h, and 168 h post-injection for MAM279 conjugate injected at 0.1 mg/kg, 0.01 mg/kg and 0.001 mg/kg. Serum was collected 2 min, 30 min, 4 h, 24 h, 30 h, 48 h, 72 h, 96 h, and 168 h post-injection for Rova antibody injected at 1 mg/kg. DARPins and Rova were detected and measured by ELISA. Rova PK characteristics were calculated with time points between 4 h and 168 h and MAM279 conjugate PK characteristics were calculated with time points between 4 h and 72 h. The data were expressed as the DARPin or Rova concentration in serum (nmol/L). Results are shown in FIGS. 19A and 19B and Table 22.

For another series, the target named is T1, human serum albumin (human, UniProt P02768 25-609).
T1 construct: also called HSA
Description: SPR (Bruker Sierra SPR-32), HSA on chip, DARPin as analyte, 1:1 Langmuir fit. The protocol:
(§1) Similarly, a SPR assay was used to determine the binding kinetics to human or mouse serum albumin. […] All analytes (3-fold dilution ranging from 1000-12.35 nM) were injected in succession for 240 s (25 μl/min) and dissociation was recorded for 600 s (25 μl/min).

The target in another series is T2, mouse serum albumin (mouse, UniProt P07724 25-608).
T2 construct: also called MSA
T2 sequence (P07724 25-608 limits assumed): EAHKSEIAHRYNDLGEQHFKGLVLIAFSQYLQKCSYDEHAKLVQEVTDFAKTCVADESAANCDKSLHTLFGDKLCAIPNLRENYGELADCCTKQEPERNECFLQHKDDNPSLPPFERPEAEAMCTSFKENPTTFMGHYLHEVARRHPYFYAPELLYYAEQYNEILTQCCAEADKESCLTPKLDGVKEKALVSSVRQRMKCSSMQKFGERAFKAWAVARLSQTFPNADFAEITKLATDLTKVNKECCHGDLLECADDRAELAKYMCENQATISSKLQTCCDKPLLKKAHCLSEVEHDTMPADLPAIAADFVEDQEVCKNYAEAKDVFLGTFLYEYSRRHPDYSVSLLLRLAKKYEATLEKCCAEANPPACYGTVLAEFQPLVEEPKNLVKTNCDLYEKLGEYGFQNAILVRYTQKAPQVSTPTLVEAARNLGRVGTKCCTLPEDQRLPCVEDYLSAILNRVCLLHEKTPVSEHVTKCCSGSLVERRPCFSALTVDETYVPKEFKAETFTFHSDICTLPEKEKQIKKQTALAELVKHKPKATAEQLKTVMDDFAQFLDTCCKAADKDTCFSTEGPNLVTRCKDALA
The series can be described thus: SPR (Bruker Sierra SPR-32), MSA on chip, DARPin as analyte, 1:1 Langmuir fit. The protocol:
as §1

The target of series [3] is T3, hDLL3 ECD-Avi-Fckih (biotinylated extracellular domain of human DLL3, residues 27 to 466, Avi-tag, 3C site, … (human, UniProt Q9NYJ7 27-466, biotinylated at the Avi-tag)).
T3 construct: The make-up of the second Fc chain of the knob-into-hole pair is not described; also called bio-DLL3; recombinant human DLL3; not shown: Avi-tag, 3C protease recognition site and Fc knob into hole
T3 sequence: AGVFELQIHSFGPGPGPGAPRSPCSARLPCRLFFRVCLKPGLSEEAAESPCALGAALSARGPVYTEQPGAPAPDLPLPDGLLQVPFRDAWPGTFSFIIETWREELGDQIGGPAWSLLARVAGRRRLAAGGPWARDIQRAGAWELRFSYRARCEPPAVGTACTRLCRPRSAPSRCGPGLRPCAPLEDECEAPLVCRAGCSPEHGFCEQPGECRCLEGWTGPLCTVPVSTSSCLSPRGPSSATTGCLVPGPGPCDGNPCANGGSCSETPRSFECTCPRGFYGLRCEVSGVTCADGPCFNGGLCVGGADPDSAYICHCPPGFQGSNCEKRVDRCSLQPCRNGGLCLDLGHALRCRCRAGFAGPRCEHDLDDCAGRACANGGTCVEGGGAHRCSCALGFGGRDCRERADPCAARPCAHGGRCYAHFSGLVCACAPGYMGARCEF
The series can be described thus: SPR (ProteOn), biotinylated hDLL3 ECD-Avi-Fckih on chip, DARPin as analyte, 1:1 Langmuir fit. Here is the method:
Kinetic binding parameters and binding affinities of two domain (2D) ankyrin repeat proteins comprising an ankyrin repeat domain with binding specificity for DLL3 and an ankyrin repeat domain with binding specificity for serum albumin were determined by surface plasmon resonance (SPR) multi-trace analysis.
In brief, a SPR assay was used to determine the binding kinetics to the target human DLL3. The data were generated using BioRad ProteOn instrument in SPR running buffer (PBS, pH 7.4 containing 0.005% Tween 20®). […] The chip was coated with biotinylated target (bio-DLL3) to reach a signal intensity of 1780 RU. […] Each injection was followed by a regeneration step with 16 mM H₃PO₄ for 18 s. […] The bio-DLL3 target used was as described in U.S. 63/550,951, i.e. the extracellular domain (ECD) of human DLL3 protein (Q9NYJ7, Gene ID: 10683, residues 27 to 466; purchased from Evitria) linked via an Avi-tag (for site-directed biotinylation), followed by a 3C protease recognition site, to a Fc knob into hole (hDLL3 ECD-Avi-Fcₖᵢₕ).

Series [4] concerns the target T4, Human DLL3 expressed on cells (HEK293T-hDLL3, NCI-H82, SHP-77, MC38-hDLL3) (human, UniProt Q9NYJ7 27-618).
T4 construct: also called DLL3 endogenously expressed on human cells
T4 sequence: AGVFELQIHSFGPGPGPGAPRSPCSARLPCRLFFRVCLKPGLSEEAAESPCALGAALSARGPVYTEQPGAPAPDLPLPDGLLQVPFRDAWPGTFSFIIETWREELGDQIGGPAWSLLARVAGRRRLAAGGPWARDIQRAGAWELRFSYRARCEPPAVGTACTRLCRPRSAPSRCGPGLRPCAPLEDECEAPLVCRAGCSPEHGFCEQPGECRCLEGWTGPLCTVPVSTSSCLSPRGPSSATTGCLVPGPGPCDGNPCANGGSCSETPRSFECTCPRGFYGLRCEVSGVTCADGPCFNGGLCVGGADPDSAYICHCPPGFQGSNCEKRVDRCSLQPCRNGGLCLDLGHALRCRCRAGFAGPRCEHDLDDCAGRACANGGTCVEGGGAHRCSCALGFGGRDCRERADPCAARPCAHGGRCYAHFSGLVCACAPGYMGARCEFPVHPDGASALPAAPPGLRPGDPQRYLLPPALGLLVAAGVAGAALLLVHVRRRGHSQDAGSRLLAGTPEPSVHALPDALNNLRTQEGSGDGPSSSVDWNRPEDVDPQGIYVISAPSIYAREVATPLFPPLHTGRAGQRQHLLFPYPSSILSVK
Description: flow cytometry titration on HEK293T-hDLL3 cells, without HSA. The protocol:
(§2) Cell binding titration assays were performed for selected His-tagged single domain (1 D) and two domain (2D) designed ankyrin repeat proteins to determine binding to human DLL3 expressed on HEK293T-huDLL3 cells in absence and presence of human serum albumin. […] HEK293T-hDLL3 cells are HEK293T cells that were stably transfected to express human DLL3 on their surface.
(§3) In brief, 1×10⁵ cells/well were resuspended in 100 μl DARPin dilution (500 nM, 1:5 serial diluted) and incubated for 1 h at 4° C. Cells were washed twice with PBS and resuspended in 100 μl anti-DARPin antibody (rabbit anti-DARPin 1.4.8) and LIVE/DEAD fixable cell stain (1:1000, Thermo Fisher #L34957). This step was performed in absence and presence of […] Human Serum Albumin (CSL Behring #150570). After incubation and washing, cells were incubated with detection antibody for 30 minutes (Goat […] IgG (H+L), AF647, Thermo Fisher #21445). Cells were fixed (Paraformaldehyde Solution, LucernaChem) and acquired at Attune N×T (Thermo Life Technologies). Raw fcs files were exported and analyzed using FlowJo software. MFI values of live AF647-positive cells were exported from FlowJo and plotted using GraphPad Prism software.
(In general: In flow cytometry, cells or beads pass a laser one at a time.)

Series [5] has as its target T4, Human DLL3 expressed on cells …. The series can be described thus: flow cytometry titration on HEK293T-hDLL3 cells, with HSA. Here is the method: as §2, §3

B1: MAM283 conjugate: SEQ ID NO: 16 conjugated to DOTAM-maleimide, labelled with Pb-212 (natural lead in PK studies) (conjugate)
chain: GSDLGKKLLEAARAGQDDEVRELLKAGADVNAKDYFSHTPLHLAARNGHLKIVEVLLKAGADVNAKDFAGKTPLHLAADAGHLEIVEVLLKAGADVNAQDIFGKTPADIAADAGHEDIAEVLQKAAGSPTPTPTTPTPTPTTPTPTPTGSDLGKKLLAAAADGQDDEVRELLQAGADVNAKDLFGYTPLHLAAWRGHLEIVEVLLEAGADVNAKDAAGETPLHLAAWFGHLEIVEVLLEAGADVNAQDVQGKTPADLAAKEGHEDIAEVLQQAAGSGSC
modifications: DOTAM-maleimide, Pb-212 label; Ankyrin repeat protein with tag (GS-MAM283-tag)
For B1, the appearance of animals entry in series [1] (Pb-212 labelled conjugate injected once at 10 μCi, 20 μCi and 30 μCi i.v., WT CD1 mice) is “animals appeared healthy and active”. Also, the “body weight (BW) change” value in series [1] (Pb-212 labelled conjugate injected once at 10 μCi, 20 μCi and 30 μCi, WT CD1 mice, recovered within up to about 10 days) is given as “Minimal weight loss”. The toxicity entry in series [1] (Pb-212 labelled conjugate, injected dose of 60 μCi, WT CD1 mice) is listed as “Toxicity was observed”. The “hematology profile (white blood cells, lymphocytes, monocytes, neutrophils)” value in series [1] (within up to 28 days after injection of 10 μCi, 20 μCi and 30 μCi doses (data not shown)) is listed as “complete recovery”. This molecule had a serum half-life in series [2] of 12.7 h.

B2: MAM160 (two domain ankyrin repeat protein, N-terminal His6-TEV tag) (designed binder)
chain: MRGSHHHHHHENLYFQDLGKKLLEAARAGQDDEVRELLKAGADVNAKDYFSHTPLHLAARNGHLKIVEVLLKAGADVNAKDFAGKTPLHLAADAGHLEIVEVLLKAGADVNAQDIFGKTPADIAADAGHEDIAEVLQKAAGSPTPTPTTPTPTPTTPTPTPTGSDLGTKLLSAAADGQDDEVRELLQAGADVNAKDLFGYTPLHLAAWRGHLEIVEVLLEAGADVNAKDAAGLTPLHLAAWFGHLEIVEVLLEAGADVNAQDVQGVTPADLAAKEGHEDIAEVLQQAA
notes: also called 2D DARPin
On to B2, for which the results for the Kd (with human serum albumin; in the series with mouse serum albumin; in series [3]) were 95.9 nM, 336 nM and 1.99 nM, respectively. The figures for the koff (with human serum albumin; with mouse serum albumin; in series [3]) were 0.0105 s⁻¹, 0.0271 s⁻¹ and 2.01e-05 s⁻¹, respectively. Further, the figures for the on-rate (kon) (with human serum albumin; in the series with mouse serum albumin; in series [3]) were 110000 M⁻¹ s⁻¹, 80400 M⁻¹ s⁻¹ and 10100 M⁻¹ s⁻¹, respectively. Moreover, the EC50 was 18.9 nM in series [4] and 36.6 nM in series [5].

The term Kd denotes the constant that tells how readily two partners part at equilibrium. By koff is commonly meant the rate constant with which the complex falls apart. Read a high koff as fast dissociation. The term kon denotes the second-order rate constant of association. The low end stands for slower complex formation, the high end for faster complex formation. The term EC50 denotes the midpoint of the concentration-response curve.
